The results in this text go back to PMC9860126, “Mechanistic insights into the nickel-dependent allosteric response of the Helicobacter pylori NikR transcription factor”.

Some targets named below: HpNikR GGS (Helicobacter pylori G27, UniProt A1YSQ9 1-148, P59G;N60G;D61S); HpNikR I127A (Helicobacter pylori G27, UniProt A1YSQ9 1-148, I127A); HpNikR Δ3aa (Helicobacter pylori G27, UniProt A1YSQ9 1-58+62-148, internal_change).
Experiment in all cases: fluorescence anisotropy; Ni(II)-bound; FA: 5 nM DNA, 20 mM Tris pH 7.6, 100 mM NaCl, 3 mM MgSO4, temperature not stated (Ni loading 1.2 eq NiSO4 per monomer at RT). EMSA: 20 mM Tris pH 7.5, 100 mM KCl, 3 mM MgCl2, 0.1% IGEPAL, 5% glycerol, 0.1 mg/ml herring sperm DNA, RT; gel with 800 uM NiSO4 at 4 C
Holding throughout (settings): protein: recombinant; tags: none stated; chain copies: 4; label: fluorescein on internal thymine (T14 of strand 1); blunt

B1: ureA promoter 32 bp (FA) (dsDNA)
DNA 1: ATATAACACTAATTCATTTTAAATAATAATTA
DNA 2: TAATTATTATTTAAAATGAATTAGTGTTATAT
Turning to B1, the Kd amounted to 4.6 ± 1.2 nM with HpNikR GGS, 8.7 ± 1.3 nM with HpNikR I127A and 4.4 ± 1.3 nM in the series with HpNikR Δ3aa.
